According to patent publication US20220242932A1, “ULINASTATIN POLYPEPTIDES FOR TREATING DISEASES” (DiaMedica USA Inc., priority 2021, published 2022):
One block for each molecule: values may come before it.

Experiments:
Neutrophil elastase (NE) = Neutrophil elastase (NE) (UniProt P08246); assay: cell-based or functional assay
neutrophil elastase = molecular target: T1, neutrophil elastase (Homo sapiens, UniProt P08246); assay: Neutrophil Elastase Colorimetric Drug Discovery Assay (Enzo Life Sciences), in vitro inhibition of neutrophil elastase; format: biochemical
T1 construct: purchased Enzo Life Sciences
T1 sequence (P08246 30-267): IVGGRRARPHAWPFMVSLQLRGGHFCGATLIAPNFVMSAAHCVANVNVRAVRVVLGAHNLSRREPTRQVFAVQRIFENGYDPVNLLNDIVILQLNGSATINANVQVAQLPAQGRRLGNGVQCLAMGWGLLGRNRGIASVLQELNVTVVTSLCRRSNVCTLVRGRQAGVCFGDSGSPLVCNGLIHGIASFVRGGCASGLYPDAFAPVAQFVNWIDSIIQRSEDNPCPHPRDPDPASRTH
Description: In vitro studies were performed to test the ability of ulinastatin to inhibit neutrophil elastase (NE). The recombinant ulinastatin polypeptide (DM300) in this experiment is the UTIΔCS variant (SEQ ID NO: 2), which has an N-linked glycan at residue N45 and a non-natural O-linked glycan at residue T17 after recombinant preparation according to methods described in U.S. Provisional Application Nos. 63/108,733 and 63/021,938 (herein incorporated by reference).
Recombinant ulinastatin (DM300) was tested for inhibition of neutrophil elastase at 8 concentrations of DM300, with triplicate measurements per compound concentration. Neutrophil elastase activity was measured using the Neutrophil Elastase Colorimetric Drug Discovery Assay (Enzo Life Sciences) as per the manufacturer's protocol. 65 μl of assay buffer was placed into the required number of wells of a 96 well, clear, half area plate and equilibrated to 37° C. Inhibitor was added to a final reaction concentration at 100, 31.6, 10, 3.16, 1, 0.316, 0.1, 0.0316, or 0 μg/mL DM300 by addition of 20 μl of 5× concentration of DM300 diluted in assay buffer, followed by 10 μl of diluted neutrophil elastase. 100 μM elastatinal was also included as a control. After 15 minutes at 37° C., 5 μl of diluted substrate was added and the plate was read in SpectraMax m5 Microplate Reader equilibrated to 37° C. Linear portions of the data were selected, and the resulting data was analyzed using GraphPad Prism V.8.2.1.

- IC50 (inhibition of neutrophil elastase activity, colorimetric substrate assay) (Neutrophil elastase (NE)): 3.15 µg/mL
- IC50 (inhibition of neutrophil elastase activity, colorimetric substrate assay), molar conversion (Neutrophil elastase (NE)): 43.8 nM
- LogIC50 (best-fit value) (Neutrophil elastase (NE)): 0.499 log10(µg/ml)
Molecule: Recombinant ulinastatin polypeptide (DM300), UTIΔCS variant (from UniProt P02760 206-352)

- inhibitory activity in an in vitro assay of neutrophil elastase activity (neutrophil elastase; FIG. 1): significant inhibitory activity
- HillSlope (neutrophil elastase; best-fit value, log(inhibitor) vs. response, variable slope (four parameters)): −1.004
- LogIC50 (neutrophil elastase; best-fit value, log(inhibitor) vs. response, variable slope (four parameters), concentration in μg/mL): 0.4987
- IC50 (neutrophil elastase; converted from 3.153 μg/ml, assuming 1 Da=1 g/mol): ~43.8 nM
B1: DM300: recombinant ulinastatin polypeptide, UTIΔCS variant (SEQ ID NO: 2, S10A), N-linked glycan at N45 and non-natural O-linked glycan at T17 (protein, listed as Homo sapiens)
chain: AVLPQEEEGAGGGQLVTEVTKKEDSCQLGYSAGPCMGMTSRYFYNGTSMACETFQYGGCMGNGNNFVTEKECLQTCRTVAACNLPIVRGPCRAFIQLWAFDAVKGKCVLFPYGGCQGNGNKFYSEKECREYCGVPGDGDEELLRFSN
modifications: N-glycan N45, O-glycan T17
